Common to all, as to details: holding potential -50 mV; Na+ medium (about 96 mM Na+); Hill coefficient about 1
Substrate in data set [1]: N[C@@H](CS)C(=O)O
In kind it is cell-based, Drosophila melanogaster.

Substrate in data set [2]: N[C@@H](Cc1ccccc1)C(=O)O
Type of data set: cell-based, Drosophila melanogaster.

Substrate in data set [3]: N[C@H](CS)C(=O)O
Type of data set: cell-based, Drosophila melanogaster.

Substrate in data set [4]: N[C@@H](Cc1ccc(O)cc1)C(=O)O
Type of data set: cell-based, Drosophila melanogaster.

Substrate in data set [5]: CSCC[C@@H](N)C(=O)O
In kind it is cell-based, Drosophila melanogaster.

Substrate in data set [6]: N[C@@H](Cc1ccc(O)c(O)c1)C(=O)O
In kind it is cell-based, Drosophila melanogaster.

Substrate in data set [7]: CSCC[C@H](N)C(=O)O
In kind it is cell-based, Drosophila melanogaster.

Substrate in data set [8]: N[C@@H](Cc1c[nH]cn1)C(=O)O
Type of data set: cell-based, Drosophila melanogaster.

Substrate in data set [9]: N[C@H](Cc1ccc(O)cc1)C(=O)O
Type of data set: cell-based, Drosophila melanogaster.

Substrate in data set [10]: CC(C)[C@@H](N)C(=O)O
Kind of data set: cells, lysate or membranes.

Substrate in data set [11]: N[C@H](Cc1ccccc1)C(=O)O
Nature of the data set: cells, lysate or membranes.

Substrate in data set [12]: N[C@@H](CO)C(=O)O
Kind of data set: cells, lysate or membranes.

Substrate in data set [13]: CC(C)[C@H](N)C(=O)O
Kind of data set: cells, lysate or membranes.

Substrate in data set [14]: N[C@H](CO)C(=O)O
Kind of data set: cells, lysate or membranes.

Substrate in data set [15]: CC(C)C[C@H](N)C(=O)O
Nature of the data set: cells, lysate or membranes.

Substrate in data set [16]: CC(C)C[C@@H](N)C(=O)O
Kind of data set: cells, lysate or membranes.

Substrate in data set [17]: O=C(O)[C@H]1CCCN1
Nature of the data set: cells, lysate or membranes.

Substrate in data set [18]: C[C@H](N)C(=O)O
Kind of data set: cells, lysate or membranes.

Substrate in data set [19]: CC[C@H](C)[C@H](N)C(=O)O
Nature of the data set: cells, lysate or membranes.

Substrate in data set [20]: O=C(O)[C@@H]1CCCN1
Kind of data set: cells, lysate or membranes.

For 1 protein, K0.5 results are on record in publication PMC2676678.

B1: DmNAT1 (Drosophila melanogaster) (protein)
chain: MELKGVQPSNGSSNGSGNGATNAASTEKTDAEKPTAERTNWGNGLEFLMSCISVSVGLGNVWRFPFTAYENGGGAFLIPYIIVLFLIGKPMYYLEMIMGQFTSQGTVKIWSVVPGFVGVGYGQAFGTICIISYYSSLLALTLYYLFVSFQSELPWSYCRDEWTNCVNSRPQEYVDNLLTGVSLANESARNLSGIVANDETEKLQSSSELYFLNVVIKEKLDISDGVGDPDWKLTLALFVAWVVIFLVIMRGVKSSGKAAYFLALFPYVVLFVLLIRAVTLEGARDGILFFLEPQWGELLNPTVWKEAVVQCFFSLAVGSGPIIMFASYNRFDHGIYRDAMIVTTLDTLTSLLGGITIFAILGNLAHNLQIENIRDVVRSGTGLAFISYPDAISKFQAVPQLFSVLFFFMLFVLGIGSIVALQSTIVTIICDQFKGWKYWKVALTTSVCGFLMGLVYVTPGGQWILTLVDFYGGTYVVFILAIFELAGIVWVYGLQNFCDDIEFMCNRRVSLYWRVCWSFFTPVMMIIIFIYSMVTIEPIKYSELYFPEAANIAGWLLFAIGAAQFPLWGLWYISRHPQGTYWKSLKASLKPSDRWGPANPEIRREWVIFKNQKAAQRATQKDTSKLGFFWRKVANFCGSNK
Turning to B1, the K0.5 was determined as 199.1 ± 18.8 µM in data set [1]; 58.3 ± 5.3 µM in [2]; 141.0 ± 28.6 µM in data set [3]; 96.8 ± 17.9 µM in data set [4]; 24.7 ± 9.9 µM in data set [5]; 242.3 ± 57.9 µM in data set [6]. For the same protein, the K0.5 in [7] is 39.8 ± 12.7 µM; in data set [8] it was 188.5 ± 37.9 µM; in data set [9], 64.3 ± 15.3 µM; in data set [10] it was 170.2 ± 38.3 µM; in data set [11] it was 55.2 ± 10.3 µM; in data set [12] it was 119.7 ± 18.6 µM. In addition, the K0.5 in data set [13] turned out to be 96.8 ± 20.2 µM; in [14], 128.1 ± 21.3 µM; in data set [15], 126.2 ± 39.8 µM; in data set [16], 92.2 ± 34.8 µM; in data set [17], 142.4 ± 38.5 µM; in data set [18] it was 255.6 ± 76.8 µM. The K0.5 in data set [19] amounted to 130.1 ± 37.5 µM; in [20], 127.6 ± 44.9 µM.
